The text below walks through data of a protein production outcome set (Wang et al. 2014).

A short description of the series: label from the status in PepcDB records.

Consider “QAQITGRPEWIWLALGTALMGLGTLYFLVKGMGVSDPDAKKFYAITTLVPAIAFTMYLSMLLGYGLTMVPFGGEQNPIYWARYADWLFTTPLLLLDLALLVDADQGTILALVGADGIMIGTGLVGALTKVYSYRFVWWAISTAAMLYILYVLFFGFTSKAESMRPEVASTFKVLRNVTVVLWSAYPVVWLIGSEGAGIVPLNIETLLFMVLDVSAKVGFGLILLRSRAIFGEAEAPEPSAGDGAAATS”, for which the protein production entry is recorded as “not failed”. Take “QEYILALADVPSSPYGVKIIELSQTTAKVSFNKPDSHGGVPIHHYQVDVKEVASEIWKIVRSHGVQTMVVLNNLEPNTTYEIRVAAVNGKGQGDYSKIEIFQTLPV”: the protein production result is “not failed”. As to “QGKLLELVTFVPTEYADAVRQALWQAGAGRLGHYDCCSFSHAGTGTFRAAEGANPFVGAISELHHEAEERISLVLPAYRQGTVLQALHAAHPYELPAVSLIPLANDHPSAGGGIVGDLPSPISEREMLLHIKEVFGLKVLSHSAWRERPLRRMAICGGSGAFMWRRAAQEGADLFLTGEAKYNDFFDAGEHLLLVTIGHYESEEVANELFMRIISQKFPTFATHKSSVATNPVNYL”, the protein production result is reported as “failed”. As for “QGYQVTKLYVMDRDGTNARLLTEGFDRDVQNPTFTADGEHIVFRYVDEGSTKIGRVALDGGRRVVAEHVGGTSIGRPYTSGSFSLASNGRVAFTHATPQRPADVAVAQAGREAQVLTALNDDLFGQVDLGSVEQITYESSHDGRTIEGWIVTPPGFDASQEYPLVLEIHGGPFASYGPYFSAEVQLYAAAGYVVLYTNPRGSTSYGQDFGNAIHHDYPGHDYDDLMSGVDAVLERGYVDADRLYVTGGSGGGVLTSWIVGHTDRFRAAVAAKPVINWYSWALTADMYPYGVKYWFPGLPWNHEEHYMDRSPLSYVDNVTTPTMLLTGANDYRTPMSESEQFYQALKLREVETALVRVPGASHSIAARPSHLAAKAAHVLEWFRRHGGPTPEQ”, the entry is “failed”; as for “QIPAERDREPSKLKRSYSSPDITQAIQEEEKRKPTVTPTVNRENKPTCYPKAEISRLSASQIRNLNPVFGGSGPALTGLRNLGNTCYMNSILQCLCNAPHLADYFNRNCYQDDINRSNLLGHKGEVAEEFGIIMKALWTGQYRYISPKDFKITIGKINDQFAGYSQQDSQELLLFLMDGLHEDLNKADN”, “failed”; as for “QISTPVIRVWDGILALPIIGTLDSSRTQVVMESLLQEIVDTGSSIAILDISGVPAVDSLVAQHLIKTVSATRLMGAECIISGIRPEIAQTVVHLGIDLSTIITKATLASALKTA”, “failed”.

On to “QKRPLIMIGGSSSTRTDFDDIVRSLNEQQHHPLITLTVKANQKLAFKEKRVENTNLNDALIVIFFEDSTDSTENIMTQTNGLAKAIRYLQRHQHLTTANALGYSNGGLIWSRYLAGLSSSKPLAVHDLMLIGTPFLGTDAAH”, for which the protein production result is “failed”. With “QLGGDMKTIAIADRTGEYEQLFKENDEFRFVHAEKTAEEYRKMGADKSGIDAVLEIRQDLLEDPNAVAIYGYKQLPASVSNHISRILSDYLSDKKIASYNIPDIKQILADSKIELSVHTYKWSEDGTNERTSGELASGIS”, the protein production entry is recorded as “not failed”.

Turning to “QLIDIGVNLTNSSFHDQQAAIVERALEAGVTQMLLTGTSLAVSEQALELCQQLDASGAHLFATAGVHPHDAKAWDTDSERQLRLLLSEPRVRAVGECGLDFNRDFSPRPLQEKALEAQLTLAAQLRLPVFLHERDASERLLAILKDYRDHLTGAVVHCFTGEREALFAYLDLDLHIGITGWICDERRGTHLHPLVGNIPEGRLMLESDAPYLLPRSLRPKPKSGRNEPAFLPEVLREVALHRGESAEHTAAHTTATARDFFQLP”, the protein production result is “not failed”.

As to “QQAIADQLLEMILQSQDLHNAYRLVVEGLQRGLGVDRVLLVQNAVFPNRQSRLVAQAIAPARDIMLLDEPCADCRWLHLLGQLPHYGLWTVWEGEGEFVQLDPVQGEFCRTLGIKSLLHLPLVINQRHWGVLSLQYLHQARPWPLEDQQFAQRIAHLFCLGLMKTELWIHCQNHKNALQTVVAEGQ”, the protein production entry is “failed”. The value for “QQNIVLSIQDRLQQLPKSERKIAEYILKNTETVISMNAQELAKQAGSSPAAIIRFCHSMDVNGFTELKLLLSANLGQMKQQMYTEVTKGESTADIKQKLQARFVHVVERSGQTLE” was “not failed”; that for “QRLSNSIINSLASGEGVVEALRTMKNDGVISGMFKLEQGKFNRSIENLVRTEYSHFAVEGVRKSLKDIGVKQTQSWSAEDERVCSICGGRHGKEIKDDWHPPYHGRCRCTEI” was “failed”.
